Substitutions are numbered along the chain they refer to. Numbers in names are those of the source.

The term Kd denotes the constant that tells how readily two partners part at equilibrium.

B1: Δ14 (receptor)
TβRII polypeptide: VTDNNGAVKFPQLCKFCDVRFSTCDNQKSCMSNCSITSICEKPQEVCVAVWRKNDENITLETVCHDPKLPYHDFILEDAASPKCIMKEKKKPGETFFMCSCSSDECNDNIIFSEEYNTSNPD
notes: also called TβRII Δ14 (N-terminal aas 1-14 deleted)
B2: D32A (receptor)
TβRII polypeptide: IPPHVQKSVNNDMIVTDNNGAVKFPQLCKFCAVRFSTCDNQKSCMSNCSITSICEKPQEVCVAVWRKNDENITLETVCHDPKLPYHDFILEDAASPKCIMKEKKKPGETFFMCSCSSDECNDNIIFSEEYNTSNPDLLLVIFQ
notes: also called TβRII D32A
B3: I53A (receptor)
TβRII polypeptide: B2 TβRII polypeptide with A32D, I53A
notes: also called TβRII I53A
B4: I50A (receptor)
TβRII polypeptide: B2 TβRII polypeptide with A32D, I50A
notes: also called TβRII I50A
B5: D118A (receptor)
TβRII polypeptide: B2 TβRII polypeptide with A32D, D118A
notes: also called TβRII D118A
B6: S52L (receptor)
TβRII polypeptide: B2 TβRII polypeptide with A32D, S52L
notes: also called TβRII S52L
B7: S52A (receptor)
TβRII polypeptide: B2 TβRII polypeptide with A32D, S52A
notes: also called TβRII S52A
B8: D32N (receptor)
TβRII polypeptide: B2 TβRII polypeptide with A32N
notes: also called TβRII D32N
B9: F30A (receptor)
TβRII polypeptide: B2 TβRII polypeptide with F30A, A32D
notes: also called TβRII F30A
B10: T51A (receptor)
TβRII polypeptide: B2 TβRII polypeptide with A32D, T51A
notes: also called TβRII T51A
B11: E55A (receptor)
TβRII polypeptide: B2 TβRII polypeptide with A32D, E55A
notes: also called TβRII E55A
B12: S49A (receptor)
TβRII polypeptide: B2 TβRII polypeptide with A32D, S49A
notes: also called TβRII S49A
B13: L27A (receptor)
TβRII polypeptide: B2 TβRII polypeptide with L27A, A32D
notes: also called TβRII L27A
B14: E119A (receptor)
TβRII polypeptide: B2 TβRII polypeptide with A32D, E119A
notes: also called TβRII E119A
B15: E119Q (receptor)
TβRII polypeptide: B2 TβRII polypeptide with A32D, E119Q
notes: also called TβRII E119Q
B16: V77A (receptor)
TβRII polypeptide: B2 TβRII polypeptide with A32D, V77A
notes: also called TβRII V77A

The target in the first test is T1, TGF-β3 (Homo sapiens, UniProt P10600).
T1 construct: also called transforming growth factor beta 3
T1 sequence (TGF-β3 polypeptide, looked up): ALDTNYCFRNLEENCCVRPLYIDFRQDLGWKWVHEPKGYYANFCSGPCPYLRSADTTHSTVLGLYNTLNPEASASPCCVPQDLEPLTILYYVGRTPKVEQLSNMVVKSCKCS
The test is described as follows: not stated on the sheet; drawn table of Kd of TβRII variants (paragraph 345 cites Groppe et al. 2008 and De Crescenzo et al. 2006).
In turn, B1 registered a Kd of 680 nM.

For the next test, the target named is T2, TGF-β1 (Homo sapiens, UniProt P01137).
T2 construct: also called transforming growth factor beta 1
T2 sequence (P01137 279-390 limits assumed): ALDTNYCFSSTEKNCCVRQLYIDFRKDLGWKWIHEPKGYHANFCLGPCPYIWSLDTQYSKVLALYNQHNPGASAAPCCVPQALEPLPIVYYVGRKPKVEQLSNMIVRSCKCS
The description is as above.
As to B1, the Kd is 320 nM.
B2 registered a Kd of 3520 nM.
B3 yielded a Kd of 2490 nM.
The molecule B4 showed a Kd of 7960 nM.
The same measure, in the same setting: in the case of B5 it was 1510 nM.
The molecule B6 registered a dissociation constant (Kd) of 154000 nM.
Same read-out and setting: for B7 the value was 600 nM; for B8, 5900 nM; for B9, 44000 nM.
Same read-out and setting: for B10 the value was 2970 nM.
Still for that read-out and setting: in the case of B11 it was 2990 nM; in that of B12, 790 nM; in that of B13, 7970 nM.
For the molecule B14, the Kd was found to be 3350 nM.
Regarding B15, the Kd turned out to be 5950 nM.
As for B16, the Kd stood at 690 nM.

The values are drawn from US20220372093A1 (CUE BIOPHARMA, published 2022).
